{
  "source": "patent US12692310B2",
  "about": "“ASIC1 channel antagonist antibody” (ShanghaiTech University, priority 2019, dated 2026)",
  "molecules": {"B1": {"name": "ASC06-IgG1: ASC06 antibody converted into a full length IgG1 form (antibody, V domains shown)", "VH": "QVQLQQSGGGLVQPGGSLRLSCAASGFTFSSYAMSWVRQAPGKGLEWVSAISGSGGSTYYADSVKGRFTISRDNSKNTLYLQMNSLRAEDTAVYYCAKDSFYGYSKGDWGQGTLVTVSS", "VL": "QSALTQPASVSGSPGQSITISCTGTSSDVGAYNYVSWYQQQPGKAPKLMIYGVSNRPSGVSNRFSGSKSGNAASLTISGLQAEDEADYYCSSYTSSSTYVFGTGTKLTVLG"}},
  "type_in_all_cases": "cell-based",
  "key": {"[1]": {"target": "T1, mASIC1a-eYFP (Mus musculus, UniProt Q6NXK8)", "T1 construct": "expressed in transfected cells; host or cells: CHO-K1, transient", "T1 sequence (Q6NXK8 1-526)": "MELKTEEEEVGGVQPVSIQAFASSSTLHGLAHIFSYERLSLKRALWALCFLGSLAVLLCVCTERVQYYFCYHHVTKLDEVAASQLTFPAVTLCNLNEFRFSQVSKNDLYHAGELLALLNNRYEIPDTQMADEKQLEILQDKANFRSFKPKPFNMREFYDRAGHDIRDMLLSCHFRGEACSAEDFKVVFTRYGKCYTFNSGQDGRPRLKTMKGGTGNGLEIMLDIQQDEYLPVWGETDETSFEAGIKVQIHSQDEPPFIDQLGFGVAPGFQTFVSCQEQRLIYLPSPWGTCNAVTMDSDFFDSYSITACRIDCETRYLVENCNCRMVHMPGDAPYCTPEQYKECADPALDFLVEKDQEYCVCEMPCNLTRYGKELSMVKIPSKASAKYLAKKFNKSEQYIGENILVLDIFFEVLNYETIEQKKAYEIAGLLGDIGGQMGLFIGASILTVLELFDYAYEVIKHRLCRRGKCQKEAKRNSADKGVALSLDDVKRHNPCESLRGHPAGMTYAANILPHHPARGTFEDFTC", "test": "Species/subtype selectivity, FACS binding and ICC, transfected CHO-K1 cells", "experimental": "(§1) Cell Membrane Colocalization Studies Using Immunocytochemistry (ICC). Cells (CHO-K1) were seeded onto the poly-D-lysine-coated glass bottom 24-well plates at a concentration of 2×10^5 cells per mL. After 12 h of cultivation, the CHO-K1 cells were transfected with ASIC plasmids by Lipofectin 3000 reagent. Twenty-four hours after transfection, the cells were fixed in 4% paraformaldehyde and incubated for 30 min in a blocking solution (5% goat serum in PBS). The resulting cells were incubated with […] ASC06-IgG1 at 4° C. overnight followed by three PBS washes for 5 min each and incubation with the Alexa555-conjugated goat anti-human secondary antibody (Life Technology). After three additional PBS washes for 5 min each, the nuclei of the cells were stained with DAPI (#10236276001; Roche). The ICC analysis was performed on a laser scanning confocal microscopy (ZEISS LSM710) with a 63×N.A. 1.4 objective at 25° C. Images were collected on a 1,024×1,024-pixel EM-CCD camera. Data acquisition and analyses were performed with the ZEN 2012 professional software.\n(§2) To test the species and subtype selectivity of ASC06-IgG1, vectors encoding human ASIC1b-eYFP fusion, rat ASIC1a-eYFP fusion, mouse ASIC1a-eYFP fusion, hASIC2a-eYFP fusion, hASIC2b-eYFP fusion, and hASIC3a-eYFP fusion were constructed. The CHO-K1 cells were transiently transfected with these plasmids. FACS binding assay and immunocytochemistry (ICC) were carried out to determine if ASC06-IgG1 is able to bind to the cell surface-expressed ASIC homologs and isotypes."}, "[2]": {"target": "T2, rASIC1a-eYFP (Rattus norvegicus, UniProt P55926)", "T2 construct": "expressed in transfected cells; host or cells: CHO-K1, transient", "T2 sequence (P55926 1-526)": "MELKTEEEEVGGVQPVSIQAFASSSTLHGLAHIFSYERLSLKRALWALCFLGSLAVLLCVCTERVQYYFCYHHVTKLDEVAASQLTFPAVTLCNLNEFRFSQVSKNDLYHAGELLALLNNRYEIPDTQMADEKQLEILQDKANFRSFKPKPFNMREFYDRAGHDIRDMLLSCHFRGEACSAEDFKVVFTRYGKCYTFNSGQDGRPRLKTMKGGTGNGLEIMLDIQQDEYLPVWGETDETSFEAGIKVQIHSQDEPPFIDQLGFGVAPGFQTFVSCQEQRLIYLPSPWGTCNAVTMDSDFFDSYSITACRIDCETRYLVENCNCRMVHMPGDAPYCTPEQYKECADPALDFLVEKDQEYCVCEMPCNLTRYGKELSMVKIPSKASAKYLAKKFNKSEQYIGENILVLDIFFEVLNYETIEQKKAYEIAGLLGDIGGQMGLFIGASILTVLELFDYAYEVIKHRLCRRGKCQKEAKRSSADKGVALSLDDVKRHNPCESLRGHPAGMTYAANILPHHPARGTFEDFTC", "test": "Species/subtype selectivity, FACS binding and ICC, transfected CHO-K1 cells", "experimental": "as §1, §2"}, "[3]": {"target": "T3, hASIC1a-eYFP on CHO-K1 cells (Homo sapiens, UniProt P78348)", "T3 construct": "overexpress the full-length hASIC1a (1-528 amino acids) protein fused with eYFP; expressed in transfected cells; host or cells: CHO-K1, transient", "T3 sequence (P78348 1-528)": "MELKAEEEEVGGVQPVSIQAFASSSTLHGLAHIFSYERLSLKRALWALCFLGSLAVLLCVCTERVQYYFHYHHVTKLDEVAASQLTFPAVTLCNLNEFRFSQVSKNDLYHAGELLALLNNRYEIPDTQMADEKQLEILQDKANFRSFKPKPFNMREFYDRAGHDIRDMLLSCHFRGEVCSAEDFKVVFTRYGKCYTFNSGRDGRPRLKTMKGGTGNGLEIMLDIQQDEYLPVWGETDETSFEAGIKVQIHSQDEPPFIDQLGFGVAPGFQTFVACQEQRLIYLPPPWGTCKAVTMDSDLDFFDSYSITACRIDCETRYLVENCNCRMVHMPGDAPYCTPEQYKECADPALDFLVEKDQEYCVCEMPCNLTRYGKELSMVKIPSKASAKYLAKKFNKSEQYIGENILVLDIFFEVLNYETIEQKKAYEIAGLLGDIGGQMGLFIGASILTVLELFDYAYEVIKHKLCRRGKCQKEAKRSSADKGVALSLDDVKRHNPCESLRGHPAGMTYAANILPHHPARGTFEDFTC", "test": "Immunocytochemistry on CHO-K1/hASIC1a cells", "conditions": "ICC, confocal", "experimental": "as §1\nTo understand whether ASC01-ASC06 specifically bind to the ASIC1a protein expressed on cell surface, the binding of the antibodies to CHO-K1/hASIC1a cells was evaluated using immunocytochemistry. The CHO-K1/hASIC1a cells overexpress the full-length hASIC1a (1-528 amino acids) protein fused with eYFP. […] It is likely that ASC01-ASC05 recognize specific ASIC1a confirmations or subpopulations.\nThe ASC06 antibody was converted into a full length IgG1 form (ASC06-IgG1) for further study. […] The binding of ASC06-IgG1 to CHO-K1/hASIC1a cells was evaluated using immunocytochemistry, in comparison with the ASC06 (scFv format) antibody."}},
  "data": [
    {"molecule": "B1", "values": [
      {"measurement": "FACS recognition of mouse ASIC1a", "setting": "[1]; FACS", "result": "recognized"},
      {"measurement": "ICC membrane co-localization with mASIC1a-eYFP", "setting": "[1]; ICC staining", "result": "membrane co-localization"},
      {"measurement": "FACS recognition of rat ASIC1a", "setting": "[2]; FACS", "result": "recognized"},
      {"measurement": "ICC membrane co-localization with rASIC1a-eYFP", "setting": "[2]; ICC staining", "result": "membrane co-localization"},
      {"measurement": "membrane co-localization with hASIC1a", "setting": "[3]", "result": "membrane co-localization with hASIC1a"}
    ]}
  ]
}
